According to patent US10077295B2, “Glycoproteins having lipid mobilizing properties and therapeutic uses thereof” (Aston University, priority 2010, dated 2018):

Legend:
[1] = tested on: β3-AR, β1-AR and β2-AR expression; experiment: Western blot of β-AR expression in tissues of ob/ob mice after 5 days ZAG; assay type: in vivo, mouse
Protocol: Western Blot Analysis. WAT, BAT, heart and gastrocnemius muscle were thawed, washed in PBS, and lysed in Phosphsafe™ Extraction reagent for 5 min at room temperature, followed by sonication at 4° C. The supernatant formed by centrifugation at 18,000 g for 5 min at 4° C. was used for Western blotting. Cytosolic protein (5 μg for UCP's and 20 μg for β-AR) was resolved on 12% sodium dodecylsulphate polyacrylamide gels by electrophoresis at 180V for about 1 h and transferred on to 0.45 μm nitrocellulose membranes, which had been blocked with 5% (w/v) non-fat dried milk (Marvel) in Tris-buffered saline, pH 7.5, at 4° C. overnight. Prior to adding the primary antibodies membranes were washed for 15 min in 0.1% Tween 20-buffered saline. Both primary and secondary antibodies were used at a dilution of 1:1000. Incubation was for 1 h at room temperature and development was by ECL. Blots were scanned by a densitometer to quantify differences.

human β1-AR = target: T1, human β1-AR (Homo sapiens, UniProt P08588); experiment: [125I] ZAG binding to crude membranes of CHO-K1 β1 cells
T1 construct: host or cells: CHO-K1
Protocol: [^125I] labelling of ZAG. One iodo bead that had been washed and dried was incubated with Na [^125I] (1 mCi per 100 μg protein) for 5 min in PBS, then ZAG (100 μg protein) was added and left for a further 15 min. The reaction was terminated by removal of the iodo bead, while free Na [^125I] was removed using a Sephadex G25 column eluted with 0.1MNaI. The [^125I] ZAG was concentrated against PBS using a Microcon microconcentrator with a filter cut-off of Mr 10,000. The specific activity of the [^125I] ZAG was 8 Cimg protein^1.
For binding studies cells were sonicated in 2 mM Tris HCl, pH7.5, containing […] and crude total membranes were pelleted by centrifugation (13,000 g; 15 min) at 4° C. Binding studies were carried out at 37° C. by incubating membranes (500 μg protein) in 0.4 ml 50 mM Tris HCl, pH 7.5, containing 0.5 mM MgCl2 for 60 min with various concentrations of [^125I] ZAG (3,000 to 15,000 cpm) in the absence or presence of 100 μM non-labelled ZAG. The membranes were then precipitated by centrifugation at 13000 g for 20 min, the supernatant was removed and the [^125I] bound to the pellet was quantitated using a Packard Corbra Model 5005 Auto-gamma counter. Binding was analysed using non-linear regression analysis (GraphPad Prism, Version 5.04). Specific binding was regarded as the amount of labelled ZAG displaced by non-radioactive ZAG.

[2] = tested on: skeletal muscle of ob/ob mice; experiment: Protein synthesis and degradation in skeletal muscle of ZAG-treated ob/ob mice; assay type: in vivo, mouse; conditions: ob/ob mice treated 5 days
Protocol: Protein Synthesis and Degradation in Muscle. The method for the determination of protein synthesis and degradation in muscle has been previously described (Smith, K. L. & Tisdale, M. J. Increased protein degradation and decreased protein synthesis in skeletal muscle during cancer cachexia. Br. J. Cancer 67, 680-685 (1993)). […] Protein synthesis was measured by the incorporation of L-[2,6-^3H] phenylalanine (640 MBq) into acid-insoluble material using a 2 h period in which the muscles were incubated at 37° C. in RPMI/640 without phenol red and saturated with O2:CO2 (19:1). Muscles were then rinsed in non-radioactive medium, blotted and homogenised in 2% perchloric acid. The rate of protein synthesis was calculated by dividing the amount of protein-bound radioactivity by the amount of acid soluble radioactivity. Protein degradation was determined by the release of tyrosine from gastrocnemius muscle over a 2 h period in 3 ml of oxygenated Krebs-Henseleit buffer, pH7.4, containing 5 mM glucose and 0.5 mM cycloheximide.

human β2-AR = target: T2, human β2-AR (Homo sapiens, UniProt P07550); experiment: Cyclic AMP production in CHO-K1 cells transfected with β2-AR; assay type: cell-based; conditions: CHO-K1 β2-AR
T2 construct: host or cells: CHO-K1
Protocol: Binding Studies and Cyclic AMP Determination. CHO-K1 cells transfected with the human β1- and β2-AR obtained from University of Nottingham, UK, while CHOK1 cells transfected with the β3-AR were obtained from Astra Zeneca, Macclesfield, Cheshire, UK. Gene expression was under the control of hygromycin, together with a β-gal reporter construct, selected for resistance to G418. They were maintained in DMEM supplemented with 2 mM glutamine, hygromycin B ([…]), G418 ([…]), and 10% FCS, under an atmosphere of 10% CO2 in air. To determine the effect of agonists on cyclic AMP production, cells were grown in 24-well plates containing 1 ml of nutrient medium.

ob/ob mice [3] = experiment: Body weight loss by route of administration of ZAG in ob/ob mice; assay type: in vivo, mouse; conditions: intraveneous, 50 ug/day
ob/ob mice [4] = experiment: as above; assay type: in vivo, mouse; conditions: for Body weight loss / % of i.v. loss over the same time: 50 ug/day
Protocol: The goal of the study was to compare the efficacy of ZAG via various routes of administration. Mice were orally administered 50 μg ZAG or PBS (control). The results of are shown in FIGS. 31, 32, 33 (8 day oral ZAG study); 36, 37, 40 (8 day oral ZAG plus propranolol study); and FIGS. 47, 48 (oral ZAG gavage study). As shown in these repeated studies, ZAG was unexpectedly shown to be effective in bringing about weight change when administered orally by simply mixing low doses of ZAG in the drinking water of mice without requiring systemic absorption of administered ZAG. Typical oral dosing of proteins, such as insulin, can require up to 10× (or mega dosing) the intravenous dose to achieve the same level of efficacy and such limited efficacy requires systemic absorption of such proteins.

T1 sequence (P08588 whole entry): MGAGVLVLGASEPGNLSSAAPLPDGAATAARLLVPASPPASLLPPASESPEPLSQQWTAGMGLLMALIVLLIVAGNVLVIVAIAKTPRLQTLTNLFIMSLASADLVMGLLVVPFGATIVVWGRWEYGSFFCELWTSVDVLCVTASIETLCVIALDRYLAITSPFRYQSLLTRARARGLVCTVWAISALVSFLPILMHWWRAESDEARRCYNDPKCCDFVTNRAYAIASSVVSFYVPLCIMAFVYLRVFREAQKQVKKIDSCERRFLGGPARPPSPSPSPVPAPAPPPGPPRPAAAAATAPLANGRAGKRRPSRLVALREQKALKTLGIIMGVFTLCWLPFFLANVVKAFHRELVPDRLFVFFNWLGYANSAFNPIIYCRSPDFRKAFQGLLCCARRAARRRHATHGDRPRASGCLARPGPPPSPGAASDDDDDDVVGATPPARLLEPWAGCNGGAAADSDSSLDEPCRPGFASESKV

B1: ZAG: recombinant full length human zinc-α2-glycoprotein (SEQ ID NO: 1) secreted by transfected HEK293F cells; lipid mobilizing factor (protein, listed as Homo sapiens)
chain: QENQDGRYSLTYIYTGLSKHVEDVPAFQALGSLNDLQFFRYNSKDRKSQPMGLWRQVEGMEDWKEDSQLQKAREDMETLKDIVEYYNDSNGSHVLQGRFGCEIENNRSSGAFWKYYYDGKDYIEFNKEIPAWVPFDPAAQITKQKWEAEPVYVQRAKAYLEEECPATLRKYLKYSKNILDRQDPPSVVVTSHQAPGEKKKLKCLAYDFYPGKIDVHWTRAGQVQEPELRGDVLHNGNGTYQSWVVVAVPPQDTAPYSCHVQHSSLAQPLVVPWEAS
expression of β1-AR or β2-AR in gastrocnemius muscle or WAT [1]: no change in expression
increase in β3-AR expression in BAT [1]: 89%
increase in β3-AR expression in WAT [1]: 85%
β3-AR expression in gastrocnemius muscle [1]: two-fold increase
binding to the β1-AR (human β1-AR): no binding
decrease in protein degradation [2]: 60%
protein synthesis in soleus muscle [2]: over a two-fold increase
concentration required to stimulate cyclic AMP production (human β2-AR): 580 nM
% of i.v. loss over the same time (ob/ob mice [3]; 8 Days): 100%
% of i.v. loss over the same time (ob/ob mice [3]; 20 Days): 100%
Body weight loss (ob/ob mice [3]; 70 g ob/ob mice, 8 Days): −6.0%
efficacy of lowering of urinary glucose, oral vs i.v. (ob/ob mice [4]; after 5 days of dosing): equally as good
Body weight loss (ob/ob mice [4]; intraveneous, 20 Days): −9.0%
Body weight loss (ob/ob mice [4]; oral-casein (casein with ZAG in drinking water), 8 Days): −3.4%
% of i.v. loss over the same time (ob/ob mice [4]; oral-casein, 8 Days): 57%
% of i.v. loss over the same time (ob/ob mice [4]; oral-casein, 20 Days): 76%
Body weight loss (ob/ob mice [4]; oral-casein, 20 Days): −6.8%
Body weight loss (ob/ob mice [4]; oral-gavage (directly into the stomach), 8 Days): −2.3%
% of i.v. loss over the same time (ob/ob mice [4]; oral-gavage, 8 Days): 38%
Body weight loss (ob/ob mice [4]; oral-water (in the drinking water), 8 Days): −4.3%
% of i.v. loss over the same time (ob/ob mice [4]; oral-water, 8 Days): 72%
% of i.v. loss over the same time (ob/ob mice [4]; oral-water, 20 Days): 68%
Body weight loss (ob/ob mice [4]; oral-water, 20 Days): −6.1%
weight-loss efficacy of oral dosing relative to intravenous administration (ob/ob mice [4]; same dose): ≤ 75%
